Biological target: S3–4 single-chain TCR variant (scTv) of the A6 TCR
Assay: SPR

Tax P6A variant presented by HLA-A2 (from UniProt P61769) (peptide-MHC)
Kd: 5 µM

— publication PMC7642186
